Results: patent US20180155431A1 (Hoffmann-La Roche, published 2018)

Target: T1, human angiopoietin 2 (human, UniProt O15123 19-496, limits assumed)
T1 construct: The protein was bought (R&D Systems Cat. No. 623-AN) or produced in house; also called ANG-2; ANGPT2
T1 sequence: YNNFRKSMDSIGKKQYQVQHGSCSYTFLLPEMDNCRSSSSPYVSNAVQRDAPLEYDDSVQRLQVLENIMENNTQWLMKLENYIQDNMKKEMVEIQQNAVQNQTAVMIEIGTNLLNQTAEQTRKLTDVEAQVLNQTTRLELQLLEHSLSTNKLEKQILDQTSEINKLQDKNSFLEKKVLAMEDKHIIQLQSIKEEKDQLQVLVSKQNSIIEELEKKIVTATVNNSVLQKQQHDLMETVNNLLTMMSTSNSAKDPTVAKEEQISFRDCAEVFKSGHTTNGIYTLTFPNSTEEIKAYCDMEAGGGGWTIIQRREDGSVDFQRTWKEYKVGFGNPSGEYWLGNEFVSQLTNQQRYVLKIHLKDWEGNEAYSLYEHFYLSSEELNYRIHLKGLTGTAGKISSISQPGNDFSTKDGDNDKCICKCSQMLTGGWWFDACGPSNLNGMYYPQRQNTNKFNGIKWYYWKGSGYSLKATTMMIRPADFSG
Experiment: ANG-2/Tie2 interaction ELISA: antibody dilutions pre-incubated with 0.2 ug/ml human ANG-2, then added to plate-coated human Tie2; bound ANG-2 detected
Procedure: After washing a mixture of 0.5 μg/ml biotinylated anti-Angiopoietin-1/2 clone (R&D Systems #BAF923, BAM0981 R&D Systems, UK) and 1:3000 diluted streptavidin HRP (Roche Diagnostics GmbH, DE, Cat. No. 11089153001) was added for 1 h. Thereafter the plates were washed 6 times with PBST. Plates were developed with freshly prepared ABTS reagent (Roche Diagnostics GmbH, DE, buffer #204 530 001, tablets #11 112 422 001) for 30 minutes at RT. Absorbance was measured at 405 nm.

B1: <ANG-2> LC06 (antibody, V domains shown)
VH: not shown
VL: QPGLTQPPSVSVAPGQTARITCGGNNIGSKSVHWYQQKPGQAPVLVVYDDSDRPSGIPERFSGSNSGNTATLTISRVEAGDEADYYCQVWDSSSDHYVFGTGTKVTVLG
  IC50: 0.1 nM
